Data reported in PMC9482650, “Quantitative fragmentomics allow affinity mapping of interactomes” (Nature Communications, 2022).

T1: DLG3_1, Q92796
T1 sequence (Q92796 125-227, limits assumed, looked up): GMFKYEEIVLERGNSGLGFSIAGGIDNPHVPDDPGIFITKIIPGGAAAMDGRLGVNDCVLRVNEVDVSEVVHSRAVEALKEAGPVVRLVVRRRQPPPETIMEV

T2: DVL3, Q92997
T2 sequence (Q92997 244-331, limits assumed, looked up): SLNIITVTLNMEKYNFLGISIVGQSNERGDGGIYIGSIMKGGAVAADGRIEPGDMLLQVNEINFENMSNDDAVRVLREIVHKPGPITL

T3: GRIP1_3, Q9Y3R0
T3 sequence (Q9Y3R0 247-346, limits assumed, looked up): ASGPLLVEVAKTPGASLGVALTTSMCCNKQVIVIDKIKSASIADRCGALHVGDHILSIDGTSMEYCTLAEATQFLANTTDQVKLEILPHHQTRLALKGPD

T4: GRIP1_7, Q9Y3R0
T4 sequence (Q9Y3R0 999-1096, limits assumed, looked up): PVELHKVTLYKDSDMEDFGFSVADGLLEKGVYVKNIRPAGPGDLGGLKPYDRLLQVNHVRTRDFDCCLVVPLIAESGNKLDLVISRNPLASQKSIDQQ

T5: LRRC7, Q96NW7
T5 sequence (Q96NW7 1440-1537, limits assumed, looked up): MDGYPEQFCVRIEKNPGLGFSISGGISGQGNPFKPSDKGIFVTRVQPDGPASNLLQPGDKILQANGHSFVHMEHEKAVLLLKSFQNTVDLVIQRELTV

T6: MPP7, Q5T2T1
T6 sequence (Q5T2T1 134-230, limits assumed, looked up): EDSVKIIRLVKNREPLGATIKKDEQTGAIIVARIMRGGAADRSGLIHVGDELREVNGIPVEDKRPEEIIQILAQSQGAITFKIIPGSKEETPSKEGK

T7: NHERF3_3, Q5T2W1
T7 sequence (Q5T2W1 238-333, limits assumed, looked up): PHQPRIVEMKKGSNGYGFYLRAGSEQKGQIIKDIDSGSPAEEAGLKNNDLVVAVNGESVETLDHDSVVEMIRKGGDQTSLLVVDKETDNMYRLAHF

T8: NHERF3_4, Q5T2W1
T8 sequence (Q5T2W1 373-468, limits assumed, looked up): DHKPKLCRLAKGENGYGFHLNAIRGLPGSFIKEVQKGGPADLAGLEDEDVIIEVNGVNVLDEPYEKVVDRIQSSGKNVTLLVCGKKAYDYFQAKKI

T9: PCLO, Q9Y6V0
T9 sequence (Q9Y6V0 4491-4600, limits assumed, looked up): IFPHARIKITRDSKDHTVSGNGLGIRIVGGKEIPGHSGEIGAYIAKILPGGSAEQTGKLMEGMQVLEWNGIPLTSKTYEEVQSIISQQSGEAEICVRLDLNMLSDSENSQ

T10: RHPN1, Q8TCX5
T10 sequence (Q8TCX5 508-602, limits assumed, looked up): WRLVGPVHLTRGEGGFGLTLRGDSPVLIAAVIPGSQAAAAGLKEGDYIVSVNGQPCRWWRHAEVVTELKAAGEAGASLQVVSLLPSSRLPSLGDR

T11: SNTA1, Q13424
T11 sequence (Q13424 82-180, limits assumed, looked up): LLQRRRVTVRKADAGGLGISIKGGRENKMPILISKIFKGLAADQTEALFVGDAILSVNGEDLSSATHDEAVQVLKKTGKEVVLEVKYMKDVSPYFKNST

T12: SYNJ2BP, P57105
T12 sequence (P57105 8-110, limits assumed, looked up): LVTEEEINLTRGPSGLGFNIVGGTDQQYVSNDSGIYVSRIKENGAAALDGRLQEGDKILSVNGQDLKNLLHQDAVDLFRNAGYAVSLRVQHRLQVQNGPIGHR

T13: TX1BP3, O14907
T13 sequence (O14907 10-122, limits assumed, looked up): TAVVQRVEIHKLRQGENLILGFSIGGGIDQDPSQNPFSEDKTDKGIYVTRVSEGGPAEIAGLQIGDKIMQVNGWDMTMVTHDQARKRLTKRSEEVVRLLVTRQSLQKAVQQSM

B1: EXOC4, Q96A65 (peptide)
chain: ATKDKKITTV
B2: CRHR1, P34998 (peptide)
chain: FHSIKQSTAV

What was measured:
Assay in all cases: holdup assay
Set-up in all cases: key: below the threshold = too weak to quantify, mostly under pKd 3.1 to 4
Settings in all cases: plain residues with an end cap or a label only (N-terminal biotin on a linker: ado-ado)
DLG1_3, Q12959 = biological target: DLG1_3, Q12959
DLG2_3, Q15700 = biological target: DLG2_3, Q15700
DLG3_1, Q92796 = biological target: T1, DLG3_1, Q92796
DVL3, Q92997 = biological target: T2, DVL3, Q92997
GRID2IP_2, A4D2P6 = biological target: GRID2IP_2, A4D2P6
GRIP1_3, Q9Y3R0 = biological target: T3, GRIP1_3, Q9Y3R0
GRIP1_7, Q9Y3R0 = biological target: T4, GRIP1_7, Q9Y3R0
GRIP2_7, Q9C0E4 = biological target: GRIP2_7, Q9C0E4
HTRA1, Q92743 = biological target: HTRA1, Q92743
Inadl_5, Q8NI35 = biological target: Inadl_5, Q8NI35
LIMK2, P53671 = biological target: LIMK2, P53671
LRRC7, Q96NW7 = biological target: T5, LRRC7, Q96NW7
MAGI2_4, Q86UL8 = biological target: MAGI2_4, Q86UL8
MAST1, Q9Y2H9 = biological target: MAST1, Q9Y2H9
MPP7, Q5T2T1 = biological target: T6, MPP7, Q5T2T1
NHERF3_3, Q5T2W1 = biological target: T7, NHERF3_3, Q5T2W1
NHERF3_4, Q5T2W1 = biological target: T8, NHERF3_4, Q5T2W1
PCLO, Q9Y6V0 = biological target: T9, PCLO, Q9Y6V0
PDZRN4_1, Q6ZMN7 = biological target: PDZRN4_1, Q6ZMN7
RHPN1, Q8TCX5 = biological target: T10, RHPN1, Q8TCX5
SNTA1, Q13424 = biological target: T11, SNTA1, Q13424
SYNJ2BP, P57105 = biological target: T12, SYNJ2BP, P57105
TX1BP3, O14907 = biological target: T13, TX1BP3, O14907

MAST1, Q9Y2H9, sequence (Q9Y2H9 962-1065): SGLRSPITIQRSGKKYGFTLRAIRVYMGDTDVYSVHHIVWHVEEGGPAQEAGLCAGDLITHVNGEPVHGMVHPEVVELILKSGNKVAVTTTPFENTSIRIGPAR
PDZRN4_1, Q6ZMN7, sequence (Q6ZMN7 213-318): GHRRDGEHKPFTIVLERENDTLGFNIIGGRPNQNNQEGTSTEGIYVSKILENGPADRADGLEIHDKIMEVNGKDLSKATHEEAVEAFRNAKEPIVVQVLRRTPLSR
DLG1_3, Q12959, sequence (Q12959 457-571): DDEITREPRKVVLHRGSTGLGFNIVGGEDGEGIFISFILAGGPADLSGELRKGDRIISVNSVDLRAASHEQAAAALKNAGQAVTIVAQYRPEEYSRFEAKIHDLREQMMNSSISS
GRIP2_7, Q9C0E4, sequence (Q9C0E4 934-1023): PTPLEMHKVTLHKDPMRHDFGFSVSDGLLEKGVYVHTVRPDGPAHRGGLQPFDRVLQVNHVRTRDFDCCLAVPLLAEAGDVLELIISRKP
Inadl_5, Q8NI35, sequence (Q8NI35 673-780): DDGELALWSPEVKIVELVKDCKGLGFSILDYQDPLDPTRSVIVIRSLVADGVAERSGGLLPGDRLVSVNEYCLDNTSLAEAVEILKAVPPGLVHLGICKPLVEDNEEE
GRID2IP_2, A4D2P6, sequence (A4D2P6 272-370): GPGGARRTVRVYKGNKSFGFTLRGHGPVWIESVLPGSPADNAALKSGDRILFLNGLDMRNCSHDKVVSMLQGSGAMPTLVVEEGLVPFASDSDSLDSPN
HTRA1, Q92743, sequence (Q92743 360-477): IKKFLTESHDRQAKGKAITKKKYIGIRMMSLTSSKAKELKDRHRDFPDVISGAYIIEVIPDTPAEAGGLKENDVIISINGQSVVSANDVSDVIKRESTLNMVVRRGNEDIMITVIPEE
LIMK2, P53671, sequence (P53671 143-248): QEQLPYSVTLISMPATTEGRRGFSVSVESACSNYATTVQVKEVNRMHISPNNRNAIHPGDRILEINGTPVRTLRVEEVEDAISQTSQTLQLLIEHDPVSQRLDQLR
MAGI2_4, Q86UL8, sequence (Q86UL8 772-865): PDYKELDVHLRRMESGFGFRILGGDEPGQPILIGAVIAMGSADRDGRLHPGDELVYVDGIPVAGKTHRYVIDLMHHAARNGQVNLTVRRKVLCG

Binder | pKd (DLG1_3, Q12959) | pKd (DLG2_3, Q15700) | pKd (DLG3_1, Q92796) | pKd (DVL3, Q92997) | pKd (GRID2IP_2, A4D2P6) | pKd (GRIP1_3, Q9Y3R0) | pKd (GRIP1_7, Q9Y3R0) | pKd (GRIP2_7, Q9C0E4) | pKd (HTRA1, Q92743) | pKd (Inadl_5, Q8NI35) | pKd (LIMK2, P53671) | pKd (LRRC7, Q96NW7) | pKd (MAGI2_4, Q86UL8) | pKd (MAST1, Q9Y2H9) | pKd (MPP7, Q5T2T1) | pKd (NHERF3_3, Q5T2W1) | pKd (NHERF3_4, Q5T2W1) | pKd (PCLO, Q9Y6V0) | pKd (PDZRN4_1, Q6ZMN7) | pKd (RHPN1, Q8TCX5) | further results
B1 | 4.08 | 4.58 | 4.59 | below the threshold | 3.98 | below the threshold | 3.53 | 3.52 | 4.6 | below the threshold | below the threshold | 3.48 | 4.51 | below the threshold | below the threshold | below the threshold | below the threshold | below the threshold | 3.82 | 4.08 | pKd (SNTA1, Q13424): 4.26; pKd (SYNJ2BP, P57105): 4.14; pKd (TX1BP3, O14907): 3.91
B2 | 3.96 | 4.54 | 4.04 | below the threshold | 4.34 | below the threshold | below the threshold | below the threshold | below the threshold | below the threshold | below the threshold | 3.49 | 4.42 | 4.74 | below the threshold | below the threshold | 4.27 | below the threshold | 4.1 | 3.79 | pKd (SNTA1, Q13424): 3.71; pKd (SYNJ2BP, P57105): 5.21; pKd (TX1BP3, O14907): 4.11
